Assay: soluble on expression in E. coli; label from the status in PepcDB or PDB records

| Sequence | soluble on expression in E. coli |
| --- | --- |
| TMITNSRGSVDLQPSLTGVFPSGLIETKVSAAKITENYQFDSRIRLNSIGFIPNHSKKATIAANCSTFYVVKEDGTIVYTGTATSMFDNDTKETVYIADFSSVNEEGTYYLAVPGVGKSVNFKIAMNVYEDAFKTAMLGMYLLRCGTSVSATYNGIHYSHGPCHTNDAYLDYINGQHTKKDSTKGWHDAGDYNKYVVNAGITVGSMFLAWEHFKDQLEPVALEIPEKNNSIPDFLDELKYEIDWILTMQYPDGSGRVAHKVSTRNFGGFIMPENEHDERFFVPWSSAATADFVAMTAMAARIFRPYDPQYAEKCINAAKVSYEFLKNNPANVFANQSGFSTGEYATVSDADDRLWAAAEMWETLGDEEYLRDFENRAAQFSKKIEADFDWDNVANLGMFTYLLSERPGKNPALVQSIKDSLLSTADSIVRTSQNHGYGRTLGTTYYWGCNGTVVRQTMILQVANKISPNNDYVNAALDAISHVFGRNYYNRSYVTGLGINPPMNPHDRRSGADGIWEPWPGYLVGGGWPGPKDWVDIQDSYQTNEIAINWNAALIYALAGFVNYNSPQNEVLYGDVNDDGKVNSTDLTLLKRYVLKAVSTLPSSKAEKNADVNRDGRVNSSDVTILSRYLIRVIEKLPI | soluble |
| TMNNEMSDPQIEEFYTIVKELEKFDTFTNFLDVHQPELAIVFGRTKRRVDELTSALISKGYKAEGLHGDITQAKRLEVLKKFKNDQINILVATDVAARGLDISGVSHVYNFDIPQDTESYTHRIGRTGRAGKEGIAVTFVNPIEMDYIRQIEDANGRKMSALRPPHRKEVLQAREDDIKEKVENWMSKESESRLKRISTELLNEYNDVDLVAALLQELVEANDEVEVQLTFEKPLSRKGRNGKPSGSR | not soluble |
| TMNPLYSLKRSEERRNVVLSRMLDEKYISKEEYDAALKEPIVASYHGAKFEFRADYVTEMVRQEMVRRFGEENAYTSGY | not soluble |
| TPDTLELSLDKPAYRPGETAQLRIVPRAPGKALVTVLSNRVIAMKAVEVGEGETLVDLPVTDEWGTGVYVTATLLRPMDVAAGRNPTRALGLAHAAIDPGEKRLGATIETAAEAAPRGPMEIAVKVEGTAPGETVHATIAAVDVGILNLTGF | not soluble |
| TPTEGLTIGDKAPTFTICGEKQLIDLKDLRGKYVLLSFWASYDALSRMQNATLNHAVAQADNVEMVSVSFDEYKSIFNETIKKDQISTSNCFVELAGVSSDLYQTYRLKRGFKNFLLDENGVIVAKDVTVSELSS | not soluble |
| TQSLSNTFDSAIDDQLANVDVVMSGEKAPMPRGLIDELREDKDHVAAVAVQGATSAVLATEDRKAIQTGAASPTIGIFYGEGSAATTPEKITSGKEPHEANEVLAPESAAELGIKEGSTVVVVDEAGQREVKVVGTYSTEATAHPGVNLLMGEKAFLDRYQPEFIGTIFVKKADGSSEDVVQYLKDKYPDFKVDTGASLAEELTKTIKKALSFVNY | not soluble |
| TRAMEEALFQHFMHQKLGIAYAIHKPFPFFEGLLDNSIITKRMYMESLEACRNLIPVSRVVHNILTQLERTFNLSLLVTLFSQINLREYPNLVTIYRSFKRVGASY | not soluble |
| TRGAKDTVMIVNAQGGMEPREVTVAQQQGTNWIVTSGLKDGDKVVVEGISIAGITGAKKVTPKEWASSENQAAAPQSGVQTASEAKPASEAK | not soluble |
| TRGGDSAAAPLDPPKSTATRCLSCNKKVGVTGFKCRCGSTFCGTHRYPESHECQFDFKGVA | soluble |
| TSALAPVAAIIPPPPDVQPVIDKLAEYVARNGLKFETSVRAKNDQRFEFLQPWHQYNAYYEFKKQFFLQKEGGDSMQAVSAPE | soluble |
| TSDQRKAEEHIEKEAKYLASLLDAGNLNNQANEKIIKDAGGALDVSASVIDTDGKVLYGSNGRSADSQKVQALVSGHEGILSTTDNKLYYGLSLRSEGEKTGYVLLSASEKSDGLKG | not soluble |
| TTAYMEYNTTGSVKGLDNVKIRRALNLATNRKGVVQAAVDTGSKPAIAFAPTGLAKTPDGTDLAKYVAPGYEYNKTEAAKLFKEGLAESGLTKLKLTITADADAPAAKNSVDYIKSTWEAALPGLTVEEKFVTFKQRLEDSRKQNFDIVVSLWGGDYPEGSTFYGLFKSDSQNNDGKFANKDYDAAYNKAISEDAMKPAESAKDYKEAEKILFEQGAYNPLYFRSGKGLQNPKLKGVIRNTTGLSIDFTHAYKK | not soluble |
| TTILKHLPVGQRIGIAFSGGLDTSAALLWMRQKGAVPYAYTANLGQPDEEDYDAIPRRAMEYGAENARLIDCRKQLVAEGIAAIQCGAFHNTTGGLTYFNTTPLGRAVTGTMLVAAMKEDGVNIWGDGSTYKGNDIERFYRYGLLTNAELQIYKPWLDTDFIDELGGRHEMSEFMIACGFDYKMSVEKAYSTDSNMLGATHEAKDLEYLNSSVKIVNPIMGVKFWDESVKIPAEEVTVRFEQGHPVALNGKTFSDDVEMMLEANRIGGRHGLGMSDQIENRIIEAKSRGIYEAPGMALLHIAYERLLTGIHNEDTIEQYHAHGRQLGRLLYQGRWFDSQALMLRDSLQRWVASQITGEVTLELRRGNDYSILNTVSENLTYKPERLTMEKGDSVFSPDDRIGQLTMRNLDITDTREKLFGYAKTGLLSSSAASGVPQVENLENKGQSVEHHHHHH | soluble |
| TTNLFGFGIDAESRLDLNSKDMTPEKKAKAESETKRLQEFIRYANLDEGTETVFQNIIEDQEKTGNGYIEVLRDGKGQPVELVHCDSQYIRVCKKTEPVEVGYTIMEKGEPVNILRNKRFRKFVQIIDEKKVWFKEYGDPRIMDSTNGNYVEESELESKEFRDATEIIHFKIGTSAYGVPRWIGNVVSLYGARKAEELNLLYFVNGRHVPAAVVVQGGLLDEDAYNNLEEYMKGVSGTENAYQFLVLEVQGEEITNANGDKNLSDVKVEIKSLADMIQKDAMFLEYDATHRKKMRSSFRLPPIYTGEADEYNKATAETARKTTEEQVFQPMRRKLARKINGAFLEALDISEAKLVLKSPDLTDIASISNAIYPFISAASVIPNDLRPMLE | not soluble |
| TTTLAFRFQGGIIVAVDSRATAGNWVASQTVKRVIEINPFLLGTMAGGAADCQFWETWLGSQCRLHELREKERISVAAASKILSNLVYQYKGAGLSMGTMICGYTRKEGPTIYYVDSDGTRLKGDIFCVGSGQTFAYGVLDSNYKWDLSVEDALYLGKRSILAAAHRDAYSGGSVNLYHVTEDGWIYHGNHDVGELFWKVKEEEGSFNNVIG | soluble |
| TVPGATTTSSAATETMENVKKCKNFLSTLIKLASSGKQSTETAANVKELVQNLLDGKIEAEDFTSRLYRELNSSPQPYLVPFLKRSLPALRQLTPDSAAFIQQSQQQPPPPTSQ | soluble |
| VADATTLAVVGPGVMAKTITEACIAERPGITTIKIKGRSERGINAFATWALEKFPEIEVVAVGSEEDVVKDADIVIAATTTDAAGSSAFPYFKKEWLKPGALLLLPAAGRFDDAYLLDDARLVVDYMGLYEAWAEEYGPQAYQLLGIPGTHWYDLALQGKLDLAKISQIGDICSGKLPGRTNDEEIILYSVGG | not soluble |
| VAKKKRKLKVIPLGGLGEIGKNITVFEYGDDIFVVDCGIAFPEDDMLGIDLVIPDISYLTKNREKVRGIVLTHGHEDHIGALPYVLKDLNVPVYGTKLTLGLLEQKLEEHGLLNNVVLNVVKHSDVIELGCFKVEFIRSTHSIADSTALAIFTPVGTIFHTGDFKIDYTPIEGEPIDLARLAELGKKGVLLLMCDSTNVEREGYTMSEKTVGETFDEIFMNAKNRILVATFASNVHRIQQIVNAAIKFGRKIAICGRSMVNVVNVAMELGYMNVPEGLIIDIDHINKYPPEKIVIITTGSQGEPMSALTRMASGDHKKVEIIPGDLVIISANPIPGNEKLVSRVVNDLFKKGAEVIYESLADIHVSGHASQEELKLIHRLIRPKYFMPVHGEYRHLKRHANLAVELGMSPENIFIMDIGKVLELTNDSAKINGSVNAGRVLVDGLGVGDVGNIVLRDRKHLSQDGLIVVVITIEGDTGNVIAGPDVISRGFVYVRESEDLMEEIREVCKAALQKCNDKKKNDWSTKKSIIRDALRDFLYERTKRRPMILPIIMEV | soluble |
| VARAVGKENKSEFGVPSVVEMRPPALCEGCGHRDMYITLTEVLKEEYPSHKVFSDIGCYTLGANAPFNAINSCVDMGASITMAKGAADGGLHPSVAVIGDSTFTHSGMTGLLDCVNENANVVIVISDNETTAMTGGQDSAGTGRIESICIGLGVDPAHIRVVVPLKKNHEEMRQIIREEIEYNGVSVIIPRRECIQTLARKKRSK | not soluble |
| VDQVFVVGHKNLDMDALGSAVGMQLFASNVIENSYALYDEEQMSPDIERAVSFIEKEGVTKLLSVKDAMGMVTNRSLLILVDHSKTALTLSKEFYDLFTQTIVIDHHRRDQDFPDNAVITYIESGASSASELVTELIQFQNSKKNRLSRMQASVLMAGMMLDTKNFTSRVTSRTFDVASYLRTRGSDSIAIQEIAATDF | not soluble |
| VFLGKTSPDFNLGWSNSLSYKGFGLSFLINGRFGGVVTSSTQAILDRFGVSKASAEARDAGGVLLPGQGRVDAQSYYQLIGTGDYTTSGYYVYSATNIRLQELTLSYRFPDLWFKNVLKDVTLSFIANNPWMLYSKAPHDPELTPSVGTYGQGNDYFMQPSVRSFGFGIKFKL | not soluble |
| VFLPTNAQYQLLVVGVSPWDTPSPSGRISWGSAWPHQARRAQTCQRVRRHWMIDTTEAAYRLTYQPDGTSITVRENLVDILARELLGPIRGPQEVLPFSPRSQYLVGHLAPVKLTGAALIDDNAVQARANAEALAEGGGVPAYAADETTPTPTTTPKTAHPSRA | not soluble |
| VIGDMNPDFLGSVSTGLTWKNLSFRMALDMRFGGKVAVYGNRYGTAYGWTESSLKFRDEAHGGMTWTSQYLNADGSQSGSYGVTYHDGMIPQGIFASGTQVTGIDGKTHDVSGMSYQQAYENGILEPMHAASYYNYANQWSTGVTNDGWIHDLKYIALREITVGYTFPSNIAGKIGAKRLGVSFSARNLGYLYNSLPNDVNPEGVRGNLSGEFRIRSFDPYTANYTMTINVGF | not soluble |
| VILKEEFRGVIIKQGCLLKQGHRRKNWKVRKFILREDPAYLHYYDPAGAEDPLGAIHLRGCVVTSVESNSNGRKSEEENLFEIITADEVHYFLQAATPKERTEWIKAIQMASRTGK | soluble |
| VKSNKGFEAIAWDPLRQRLIIGEERPPKLYTWNTDGRSPLKGEKQPLPSDELDLRNLSALGVDPRTGHLLVLSADSNMLLELDEQGQQVSFMTLLGGFNGLE | not soluble |
| VLDDEEKIVDLSSSIEKFLDFAPGSLAGVALSEILHPEDYLHFKTALDRQKPHEAVLMFYSRFKTGDGSWLNVEWSLSIKRKPMTDQYEYTIILRKTDNPLF | not soluble |
| VLQTRNYTCGPAALVTVLQRLGVNTTEDELAGLAGTTEDGTTMQGLLEASRAKGVNATGMKLNISELKENMIAYTINDGTGHYTVINGITNDTVKLADPSLGNIEMNIEEFTEIYSGYALVINDPNNPR | not soluble |
| VLSARCHIRHIGSPGKDARCAHLSATLRPGIGISPTNVGNATVLADGTPAKPIQGAETMQRARHTGSCFSANARGPAISSGNPSRAGCGVPSSTTTPSSTPQAIRLLACTDSDALTVTRTAR | not soluble |
| VNKSELIEAIAQEADISKAAAQKALDATTNAVTTALKQGDTVTLVGFGTFYVGERAERQGRNPKTGEPLTIAAAKTPKFRAGKALKDAL | soluble |

— the DeepSol protein solubility set
